Results as given in patent US20250277020A1 (Boehringer Ingelheim, published 2025).

B1: A33 (antibody, human IgG1, kappa, L234A L235A, V domains shown)
VH: EVQLVESGGGLVQPGGSLRLSCAASGFTFSDYYMAWVRQAPGKGLEWVANINYEGSRTDLLESLKSRFTISRDNAKNSVYLQMNSLRAEDTAVYYCARDTSRGSYFDVWGAGTTVTVSS
VL: VVMTQTPLSLSVSLGDQASISCKSSQSIVHYNENTYLEWYLQKPGQSPQLLIYKVSSRFSGVPDRFSGSGSGTDFTLKISRVEAEDLGVYYCFQGSHFPLTFGQGTKLEIKR
B2: A11 (antibody, human IgG1, kappa, L234A L235A)
light: VVMTQTPLSLSVSLGDQASISCKSSQSIVHYNEKTYLEWYLQKPGQSPQLLIYKVSSRASGVPDRFSGSGSGTDFTLKISRVEAEDLGVYYCFQGSHFPLTFGQGTKLEIKRTVAAPSVFIFPPSDEQLKSGTASVVCLLNNFYPREAKVQWKVDNALQSGNSQESVTEQDSKDSTYSLSSTLTLSKADYEKHKVYACEVTHQGLSSPVTKSFNRGEC
heavy: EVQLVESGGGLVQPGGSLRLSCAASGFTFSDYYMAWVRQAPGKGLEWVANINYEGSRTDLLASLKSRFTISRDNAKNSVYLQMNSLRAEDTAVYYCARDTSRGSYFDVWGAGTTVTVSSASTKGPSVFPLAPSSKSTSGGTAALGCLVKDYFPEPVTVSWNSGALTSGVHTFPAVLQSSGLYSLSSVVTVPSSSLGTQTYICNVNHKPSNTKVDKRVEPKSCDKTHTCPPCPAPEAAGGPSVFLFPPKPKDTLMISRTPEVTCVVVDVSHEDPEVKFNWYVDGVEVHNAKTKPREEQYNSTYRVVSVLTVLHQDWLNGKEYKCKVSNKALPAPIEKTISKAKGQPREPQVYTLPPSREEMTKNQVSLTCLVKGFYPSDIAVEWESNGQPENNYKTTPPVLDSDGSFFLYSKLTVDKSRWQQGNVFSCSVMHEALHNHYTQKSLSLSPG
B3: A19 (antibody, human IgG1, kappa, L234A L235A, V domains shown)
VH: EVQLVESGGGLVQPGGSLRLSCAASGFTFSDYYMAWVRQAPGKGLEWVANINYEGSRTDLLASLKSRFTISRDNAKNSVYLQMNSLRAEDTAVYYCARDTSRGSYFDVWGAGTTVTVSS
VL: VVMTQTPLSLSVSLGDQASISCKSSQSIVHYNGKTYLEWYLQKPGQSPQLLIYKVSSRFSGVPDRFSGSGSGTDFTLKISRVEAEDLGVYYCFQGSHFPLTFGQGTKLEIKR
B4: A2 (antibody, human IgG1, kappa, L234A L235A, V domains shown)
VH: EVQLVESGGGLVQPGGSLRLSCAASGFTFSDYYMAWVRQAPGKGLEWVANINYYGSRTDLLESLKSRFTISRDNAKNSVYLQMNSLRAEDTAVYYCARDTSRGSYFDVWGAGTTVTVSS
VL: VVMTQTPLSLSVSLGDQASISCKSSQSIVHYNEKTYLEWYLQKPGQSPQLLIYKVSSRFSGVPDRFSGSGSGTDFTLKISRVEAEDLGVYYCFQGSHFPLTFGQGTKLEIKR
B5: A10 (antibody, human IgG1, kappa, L234A L235A)
light: VVMTQTPLSLSVSLGDQASISCKSSQSIVHYNEKTYLEWYLQKPGQSPQLLIYKVSSRASGVPDRFSGSGSGTDFTLKISRVEAEDLGVYYCFQGSHFPLTFGQGTKLEIKRTVAAPSVFIFPPSDEQLKSGTASVVCLLNNFYPREAKVQWKVDNALQSGNSQESVTEQDSKDSTYSLSSTLTLSKADYEKHKVYACEVTHQGLSSPVTKSFNRGEC
heavy: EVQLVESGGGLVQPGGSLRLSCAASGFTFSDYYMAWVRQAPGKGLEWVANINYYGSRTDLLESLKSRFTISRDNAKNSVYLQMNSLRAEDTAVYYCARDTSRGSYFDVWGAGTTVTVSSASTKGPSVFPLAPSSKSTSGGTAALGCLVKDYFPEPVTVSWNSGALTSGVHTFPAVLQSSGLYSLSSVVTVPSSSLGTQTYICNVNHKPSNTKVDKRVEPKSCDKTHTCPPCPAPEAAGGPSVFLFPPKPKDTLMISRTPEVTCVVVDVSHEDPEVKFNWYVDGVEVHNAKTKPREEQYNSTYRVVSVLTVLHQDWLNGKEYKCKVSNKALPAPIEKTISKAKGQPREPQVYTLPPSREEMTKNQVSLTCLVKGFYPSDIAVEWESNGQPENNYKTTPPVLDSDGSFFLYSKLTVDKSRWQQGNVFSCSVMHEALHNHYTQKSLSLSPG
B6: A9 (antibody, human IgG1, kappa, L234A L235A)
light: VVMTQTPLSLSVSLGDQASISCKSSQSIVHYNEKTYLEWYLQKPGQSPQLLIYKVSSRASGVPDRFSGSGSGTDFTLKISRVEAEDLGVYYCFQGSHFPLTFGQGTKLEIKRTVAAPSVFIFPPSDEQLKSGTASVVCLLNNFYPREAKVQWKVDNALQSGNSQESVTEQDSKDSTYSLSSTLTLSKADYEKHKVYACEVTHQGLSSPVTKSFNRGEC
heavy: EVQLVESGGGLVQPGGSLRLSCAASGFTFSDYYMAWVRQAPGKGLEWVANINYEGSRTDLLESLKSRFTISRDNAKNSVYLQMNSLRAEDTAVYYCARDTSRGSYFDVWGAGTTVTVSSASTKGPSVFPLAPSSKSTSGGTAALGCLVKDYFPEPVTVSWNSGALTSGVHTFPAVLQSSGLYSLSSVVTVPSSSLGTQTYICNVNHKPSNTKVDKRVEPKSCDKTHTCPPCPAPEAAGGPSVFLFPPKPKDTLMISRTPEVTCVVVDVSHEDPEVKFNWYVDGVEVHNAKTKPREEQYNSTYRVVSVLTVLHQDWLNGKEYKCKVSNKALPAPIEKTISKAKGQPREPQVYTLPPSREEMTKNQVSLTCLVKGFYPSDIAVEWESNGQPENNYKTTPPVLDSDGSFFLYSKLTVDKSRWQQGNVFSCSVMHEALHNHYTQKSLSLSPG
B7: A14 (antibody, human IgG1, kappa, L234A L235A)
light: VVMTQTPLSLSVSLGDQASISCKSSQSIVHYNEKTYLEWYLQKPGQSPQLLIYKVSSRASGVPDRFSGSGSGTDFTLKISRVEAEDLGVYYCFQGSHFPLTFGQGTKLEIKRTVAAPSVFIFPPSDEQLKSGTASVVCLLNNFYPREAKVQWKVDNALQSGNSQESVTEQDSKDSTYSLSSTLTLSKADYEKHKVYACEVTHQGLSSPVTKSFNRGEC
heavy: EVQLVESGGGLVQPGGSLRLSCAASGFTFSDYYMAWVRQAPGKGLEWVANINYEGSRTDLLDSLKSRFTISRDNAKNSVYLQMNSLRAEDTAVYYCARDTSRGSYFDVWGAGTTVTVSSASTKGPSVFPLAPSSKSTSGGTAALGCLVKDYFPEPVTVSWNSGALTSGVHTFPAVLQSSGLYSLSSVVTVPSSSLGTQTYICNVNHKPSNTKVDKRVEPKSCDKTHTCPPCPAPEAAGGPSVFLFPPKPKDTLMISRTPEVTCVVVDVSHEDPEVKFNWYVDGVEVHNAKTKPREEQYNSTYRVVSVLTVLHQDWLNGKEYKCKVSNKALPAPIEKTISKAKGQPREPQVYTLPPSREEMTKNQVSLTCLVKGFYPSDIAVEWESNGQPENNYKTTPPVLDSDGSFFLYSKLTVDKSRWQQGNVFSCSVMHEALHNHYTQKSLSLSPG
B8: A3 (antibody, human IgG1, kappa, L234A L235A, V domains shown)
VH: EVQLVESGGGLVQPGGSLRLSCAASGFTFSDYYMAWVRQAPGKGLEWVANINYEGSRTDLLASLKSRFTISRDNAKNSVYLQMNSLRAEDTAVYYCARDTSRGSYFDVWGAGTTVTVSS
VL: VVMTQTPLSLSVSLGDQASISCKSSQSIVHYNEKTYLEWYLQKPGQSPQLLIYKVSSRFSGVPDRFSGSGSGTDFTLKISRVEAEDLGVYYCFQGSHFPLTFGQGTKLEIKR
B9: A20 (antibody, human IgG1, kappa, L234A L235A, V domains shown)
VH: EVQLVESGGGLVQPGGSLRLSCAASGFTFSDYYMAWVRQAPGKGLEWVANINYYGSRTDLLASLKSRFTISRDNAKNSVYLQMNSLRAEDTAVYYCARDTSRGSYFDVWGAGTTVTVSS
VL: VVMTQTPLSLSVSLGDQASISCKSSQSIVHYNGKTYLEWYLQKPGQSPQLLIYKVSSRFSGVPDRFSGSGSGTDFTLKISRVEAEDLGVYYCFQGSHFPLTFGQGTKLEIKR
B10: A8 (antibody, human IgG1, kappa, L234A L235A)
light: VVMTQTPLSLSVSLGDQASISCKSSQSIVHYNEKTYLEWYLQKPGQSPQLLIYKVSSRFSGVPDRFSGSGSGTDFTLKISRVEAEDLGVYYCFQGSHFPLTFGQGTKLEIKRTVAAPSVFIFPPSDEQLKSGTASVVCLLNNFYPREAKVQWKVDNALQSGNSQESVTEQDSKDSTYSLSSTLTLSKADYEKHKVYACEVTHQGLSSPVTKSFNRGEC
heavy: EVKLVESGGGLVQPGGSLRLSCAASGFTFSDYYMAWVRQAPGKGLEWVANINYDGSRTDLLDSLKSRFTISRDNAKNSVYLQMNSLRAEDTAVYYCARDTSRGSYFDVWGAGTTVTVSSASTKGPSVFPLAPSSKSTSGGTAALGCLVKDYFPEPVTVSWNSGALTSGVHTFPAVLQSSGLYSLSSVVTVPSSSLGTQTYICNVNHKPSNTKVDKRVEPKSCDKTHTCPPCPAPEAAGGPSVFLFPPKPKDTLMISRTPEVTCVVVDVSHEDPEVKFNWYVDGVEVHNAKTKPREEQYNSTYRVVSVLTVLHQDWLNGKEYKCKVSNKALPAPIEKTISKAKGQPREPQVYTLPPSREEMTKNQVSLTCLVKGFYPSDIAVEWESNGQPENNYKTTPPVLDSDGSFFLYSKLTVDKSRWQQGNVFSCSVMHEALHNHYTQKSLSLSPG
B11: A5 (antibody, human IgG1, kappa, L234A L235A)
light: VVMTQTPLSLSVSLGDQASISCKSSQSIVHYNEKTYLEWYLQKPGQSPQLLIYKVSSRFSGVPDRFSGSGSGTDFTLKISRVEAEDLGVYYCFQGSHFPLTFGQGTKLEIKRTVAAPSVFIFPPSDEQLKSGTASVVCLLNNFYPREAKVQWKVDNALQSGNSQESVTEQDSKDSTYSLSSTLTLSKADYEKHKVYACEVTHQGLSSPVTKSFNRGEC
heavy: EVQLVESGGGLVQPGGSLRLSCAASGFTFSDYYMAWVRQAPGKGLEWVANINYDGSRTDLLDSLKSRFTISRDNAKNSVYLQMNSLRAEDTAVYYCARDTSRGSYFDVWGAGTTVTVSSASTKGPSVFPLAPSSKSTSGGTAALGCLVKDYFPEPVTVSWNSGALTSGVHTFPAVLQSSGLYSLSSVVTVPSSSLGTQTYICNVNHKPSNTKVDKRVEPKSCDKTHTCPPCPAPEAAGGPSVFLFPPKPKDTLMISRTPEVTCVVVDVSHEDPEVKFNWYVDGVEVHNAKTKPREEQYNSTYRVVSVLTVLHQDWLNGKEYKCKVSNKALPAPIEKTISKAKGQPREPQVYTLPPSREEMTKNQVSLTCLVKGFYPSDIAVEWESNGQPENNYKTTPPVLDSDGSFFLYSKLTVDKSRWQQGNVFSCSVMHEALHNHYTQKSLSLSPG
B12: A1 (antibody, human IgG1, kappa, L234A L235A, V domains shown)
VH: EVQLVESGGGLVQPGGSLRLSCAASGFTFSDYYMAWVRQAPGKGLEWVANINYEGSRTDLLESLKSRFTISRDNAKNSVYLQMNSLRAEDTAVYYCARDTSRGSYFDVWGAGTTVTVSS
VL: VVMTQTPLSLSVSLGDQASISCKSSQSIVHYNEKTYLEWYLQKPGQSPQLLIYKVSSRFSGVPDRFSGSGSGTDFTLKISRVEAEDLGVYYCFQGSHFPLTFGQGTKLEIKR
B13: A12 (antibody, human IgG1, kappa, L234A L235A)
light: VVMTQTPLSLSVSLGDQASISCKSSQSIVHYNEKTYLEWYLQKPGQSPQLLIYKVSSRASGVPDRFSGSGSGTDFTLKISRVEAEDLGVYYCFQGSHFPLTFGQGTKLEIKRTVAAPSVFIFPPSDEQLKSGTASVVCLLNNFYPREAKVQWKVDNALQSGNSQESVTEQDSKDSTYSLSSTLTLSKADYEKHKVYACEVTHQGLSSPVTKSFNRGEC
heavy: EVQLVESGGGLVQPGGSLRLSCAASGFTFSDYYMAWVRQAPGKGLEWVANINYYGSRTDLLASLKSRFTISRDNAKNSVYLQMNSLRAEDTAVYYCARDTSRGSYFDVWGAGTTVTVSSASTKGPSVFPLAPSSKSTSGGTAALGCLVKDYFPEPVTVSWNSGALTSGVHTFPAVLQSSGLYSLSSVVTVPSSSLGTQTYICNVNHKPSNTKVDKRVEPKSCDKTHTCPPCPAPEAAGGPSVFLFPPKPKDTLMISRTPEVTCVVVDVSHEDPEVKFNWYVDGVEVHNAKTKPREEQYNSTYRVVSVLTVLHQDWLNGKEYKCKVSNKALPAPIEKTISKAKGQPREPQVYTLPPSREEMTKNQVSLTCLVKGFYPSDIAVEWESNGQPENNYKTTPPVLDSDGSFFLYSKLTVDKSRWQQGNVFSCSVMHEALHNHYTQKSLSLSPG
B14: A17 (antibody, human IgG1, kappa, L234A L235A, V domains shown)
VH: EVQLVESGGGLVQPGGSLRLSCAASGFTFSDYYMAWVRQAPGKGLEWVANINYEGSRTDLLESLKSRFTISRDNAKNSVYLQMNSLRAEDTAVYYCARDTSRGSYFDVWGAGTTVTVSS
VL: VVMTQTPLSLSVSLGDQASISCKSSQSIVHYNGKTYLEWYLQKPGQSPQLLIYKVSSRFSGVPDRFSGSGSGTDFTLKISRVEAEDLGVYYCFQGSHFPLTFGQGTKLEIKR
B15: A15 (antibody, human IgG1, kappa, L234A L235A)
light: VVMTQTPLSLSVSLGDQASISCKSSQSIVHYNEKTYLEWYLQKPGQSPQLLIYKVSSRASGVPDRFSGSGSGTDFTLKISRVEAEDLGVYYCFQGSHFPLTFGQGTKLEIKRTVAAPSVFIFPPSDEQLKSGTASVVCLLNNFYPREAKVQWKVDNALQSGNSQESVTEQDSKDSTYSLSSTLTLSKADYEKHKVYACEVTHQGLSSPVTKSFNRGEC
heavy: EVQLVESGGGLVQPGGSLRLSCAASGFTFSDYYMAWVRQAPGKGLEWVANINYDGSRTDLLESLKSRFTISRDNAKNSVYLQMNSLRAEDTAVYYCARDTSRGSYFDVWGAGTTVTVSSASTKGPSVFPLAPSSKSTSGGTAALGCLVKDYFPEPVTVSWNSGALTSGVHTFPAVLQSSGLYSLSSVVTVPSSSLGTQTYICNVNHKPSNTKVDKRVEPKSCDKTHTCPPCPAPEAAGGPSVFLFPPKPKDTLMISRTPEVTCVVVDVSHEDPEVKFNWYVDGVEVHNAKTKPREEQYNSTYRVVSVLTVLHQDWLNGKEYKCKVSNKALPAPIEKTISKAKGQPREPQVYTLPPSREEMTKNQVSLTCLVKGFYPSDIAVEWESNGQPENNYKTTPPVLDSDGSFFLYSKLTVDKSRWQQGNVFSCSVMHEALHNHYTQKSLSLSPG
B16: A6 (antibody, human IgG1, kappa, L234A L235A, V domains shown)
VH: EVQLVESGGGLVQPGGSLRLSCAASGFTFSDYYMAWVRQAPGKGLEWVANINYEGSRTDLLDSLKSRFTISRDNAKNSVYLQMNSLRAEDTAVYYCARDTSRGSYFDVWGAGTTVTVSS
VL: VVMTQTPLSLSVSLGDQASISCKSSQSIVHYNEKTYLEWYLQKPGQSPQLLIYKVSSRFSGVPDRFSGSGSGTDFTLKISRVEAEDLGVYYCFQGSHFPLTFGQGTKLEIKR
B17: A16 (antibody, human IgG1, kappa, L234A L235A)
light: VVMTQTPLSLSVSLGDQASISCKSSQSIVHYNEKTYLEWYLQKPGQSPQLLIYKVSSRASGVPDRFSGSGSGTDFTLKISRVEAEDLGVYYCFQGSHFPLTFGQGTKLEIKRTVAAPSVFIFPPSDEQLKSGTASVVCLLNNFYPREAKVQWKVDNALQSGNSQESVTEQDSKDSTYSLSSTLTLSKADYEKHKVYACEVTHQGLSSPVTKSFNRGEC
heavy: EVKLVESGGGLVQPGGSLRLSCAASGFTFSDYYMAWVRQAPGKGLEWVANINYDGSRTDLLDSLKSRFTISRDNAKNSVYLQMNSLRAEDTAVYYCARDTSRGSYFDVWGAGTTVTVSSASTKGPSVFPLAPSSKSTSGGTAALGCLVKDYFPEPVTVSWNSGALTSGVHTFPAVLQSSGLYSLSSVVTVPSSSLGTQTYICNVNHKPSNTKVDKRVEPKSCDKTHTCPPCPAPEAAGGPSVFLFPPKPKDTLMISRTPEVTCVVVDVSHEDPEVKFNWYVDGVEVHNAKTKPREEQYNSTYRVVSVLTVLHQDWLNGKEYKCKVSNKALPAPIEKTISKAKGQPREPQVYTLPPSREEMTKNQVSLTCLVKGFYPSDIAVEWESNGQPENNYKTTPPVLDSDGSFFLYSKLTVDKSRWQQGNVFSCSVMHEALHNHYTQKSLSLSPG
B18: A18 (antibody, human IgG1, kappa, L234A L235A, V domains shown)
VH: EVQLVESGGGLVQPGGSLRLSCAASGFTFSDYYMAWVRQAPGKGLEWVANINYYGSRTDLLESLKSRFTISRDNAKNSVYLQMNSLRAEDTAVYYCARDTSRGSYFDVWGAGTTVTVSS
VL: VVMTQTPLSLSVSLGDQASISCKSSQSIVHYNGKTYLEWYLQKPGQSPQLLIYKVSSRFSGVPDRFSGSGSGTDFTLKISRVEAEDLGVYYCFQGSHFPLTFGQGTKLEIKR
B19: A21 (antibody, human IgG1, kappa, L234A L235A)
light: VVMTQTPLSLSVSLGDQASISCKSSQSIVHYNGKTYLEWYLQKPGQSPQLLIYKVSSRFSGVPDRFSGSGSGTDFTLKISRVEAEDLGVYYCFQGSHFPLTFGQGTKLEIKRTVAAPSVFIFPPSDEQLKSGTASVVCLLNNFYPREAKVQWKVDNALQSGNSQESVTEQDSKDSTYSLSSTLTLSKADYEKHKVYACEVTHQGLSSPVTKSFNRGEC
heavy: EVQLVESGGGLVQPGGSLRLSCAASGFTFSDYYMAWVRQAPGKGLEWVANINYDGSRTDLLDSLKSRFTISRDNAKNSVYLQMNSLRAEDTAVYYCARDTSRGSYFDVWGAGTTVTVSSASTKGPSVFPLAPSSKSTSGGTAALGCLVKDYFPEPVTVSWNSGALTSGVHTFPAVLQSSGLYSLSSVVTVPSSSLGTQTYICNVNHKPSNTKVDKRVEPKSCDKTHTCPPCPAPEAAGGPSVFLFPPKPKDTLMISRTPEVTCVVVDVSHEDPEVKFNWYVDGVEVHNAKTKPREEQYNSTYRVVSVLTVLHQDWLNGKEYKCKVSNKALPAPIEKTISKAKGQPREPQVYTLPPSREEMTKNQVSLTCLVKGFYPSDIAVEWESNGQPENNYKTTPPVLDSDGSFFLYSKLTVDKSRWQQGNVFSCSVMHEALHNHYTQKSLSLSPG
B20: A4 (antibody, human IgG1, kappa, L234A L235A, V domains shown)
VH: EVQLVESGGGLVQPGGSLRLSCAASGFTFSDYYMAWVRQAPGKGLEWVANINYYGSRTDLLASLKSRFTISRDNAKNSVYLQMNSLRAEDTAVYYCARDTSRGSYFDVWGAGTTVTVSS
VL: VVMTQTPLSLSVSLGDQASISCKSSQSIVHYNEKTYLEWYLQKPGQSPQLLIYKVSSRFSGVPDRFSGSGSGTDFTLKISRVEAEDLGVYYCFQGSHFPLTFGQGTKLEIKR
B21: A7 (antibody, human IgG1, kappa, L234A L235A, V domains shown)
VH: EVQLVESGGGLVQPGGSLRLSCAASGFTFSDYYMAWVRQAPGKGLEWVANINYDGSRTDLLESLKSRFTISRDNAKNSVYLQMNSLRAEDTAVYYCARDTSRGSYFDVWGAGTTVTVSS
VL: VVMTQTPLSLSVSLGDQASISCKSSQSIVHYNEKTYLEWYLQKPGQSPQLLIYKVSSRFSGVPDRFSGSGSGTDFTLKISRVEAEDLGVYYCFQGSHFPLTFGQGTKLEIKR

target: T1, Full-length human CTGF (human, UniProt P29279 27-349); assay: SPR, full length CTGF
T1 construct: Corresponds to NCBI NP_001892.1 with the signal peptide omitted; purchased from R&D Systems; also called hCTGF full length; full length CTGF
T1 sequence: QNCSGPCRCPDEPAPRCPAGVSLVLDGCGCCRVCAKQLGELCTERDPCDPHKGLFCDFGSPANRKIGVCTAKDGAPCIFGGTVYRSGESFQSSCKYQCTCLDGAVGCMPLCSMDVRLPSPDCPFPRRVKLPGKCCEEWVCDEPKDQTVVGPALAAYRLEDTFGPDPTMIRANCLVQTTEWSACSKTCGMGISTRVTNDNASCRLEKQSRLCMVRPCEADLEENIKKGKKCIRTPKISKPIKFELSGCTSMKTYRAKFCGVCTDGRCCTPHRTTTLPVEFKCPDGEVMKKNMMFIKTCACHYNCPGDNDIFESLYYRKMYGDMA

B1: no binding.

B2 and B3 are the same in Kd: 170 pM for the first, 170 pM for the second.

B4 and B5 are within 1.5-fold of each other in Kd: 250 pM for the first, 190 pM for the second.

B6 and B7 are within 1.5-fold of each other in Kd: 210 pM for the first, 220 pM for the second.

B8 and B9 are within 1.5-fold of each other in Kd: 230 pM for the first, 180 pM for the second.

B10 and B11 are within 1.5-fold of each other in Kd: 340 pM for the first, 320 pM for the second.

Compared with B12, B13 is 1.7-fold lower in Kd: 290 pM for the first, 170 pM for the second. The second binds more tightly here.

B14 and B15 are within 1.5-fold of each other in Kd: 200 pM for the first, 260 pM for the second.

B16 and B17 are within 1.5-fold of each other in Kd: 320 pM for the first, 240 pM for the second.

B18 and B19 are within 1.5-fold of each other in Kd: 190 pM for the first, 250 pM for the second.

First: B20
Second: B21
The Kd of the first is 1.5-fold lower: 220 pM for the first, 330 pM for the second.
